Data from US20100209939A1.

Key:
[1] = molecular target: human proBNP(1-108), recombinant protein produced in E. coli (HyTest), non-glycosylated (human) (UniProt P16860); assay: sandwich ELISA, hinge 76 capture, HRP-mAb; proBNP(1-108) 39 pg/ml
[2] = molecular target: human BNP(1-32), synthetic peptide (Sigma-Aldrich #B-5900) (human); assay: sandwich ELISA, L21016 capture; BNP(1-32) 156.25 pg/ml
[3] = molecular target: human BNP(1-32), synthetic peptide (Sigma-Aldrich #B-5900) (human); assay: sandwich ELISA, L21016 capture; BNP(1-32) 5,000 pg/ml
[4] = molecular target: human proBNP(1-108), recombinant protein produced in E. coli (HyTest), non-glycosylated (human) (UniProt P16860); assay: sandwich ELISA, hinge 76 capture, HRP-mAb; proBNP(1-108) 625 pg/ml
[5] = molecular target: human BNP(1-32), synthetic peptide (Sigma-Aldrich #B-5900) (human); assay: sandwich ELISA, L21016 capture; BNP(1-32) 312.5 pg/ml
[6] = molecular target: human BNP(1-32), synthetic peptide (Sigma-Aldrich #B-5900) (human); assay: sandwich ELISA, L21016 capture; BNP(1-32) 2,500 pg/ml
[7] = molecular target: human BNP(1-32), synthetic peptide (Sigma-Aldrich #B-5900) (human); assay: sandwich ELISA, L21016 capture; BNP(1-32) 625 pg/ml
[8] = molecular target: human BNP(1-32), synthetic peptide (Sigma-Aldrich #B-5900) (human); assay: sandwich ELISA, L21016 capture; BNP(1-32) 20 pg/ml
[9] = molecular target: human proBNP(1-108), recombinant protein produced in E. coli (HyTest), non-glycosylated (human) (UniProt P16860); assay: sandwich ELISA, hinge 76 capture, HRP-mAb; proBNP(1-108) 5,000 pg/ml
[10] = molecular target: human proBNP(1-108), recombinant protein produced in E. coli (HyTest), non-glycosylated (human) (UniProt P16860); assay: sandwich ELISA, hinge 76 capture, HRP-mAb; proBNP(1-108) 2,500 pg/ml
[11] = molecular target: human proBNP(1-108), recombinant protein produced in E. coli (HyTest), non-glycosylated (human) (UniProt P16860); assay: sandwich ELISA, hinge 76 capture, HRP-mAb; proBNP(1-108) 10,000 pg/ml
[12] = molecular target: human proBNP(1-108), recombinant protein produced in E. coli (HyTest), non-glycosylated (human) (UniProt P16860); assay: sandwich ELISA, hinge 76 capture, HRP-mAb; proBNP(1-108) 20 pg/ml
[13] = molecular target: human BNP(1-32), synthetic peptide (Sigma-Aldrich #B-5900) (human); assay: sandwich ELISA, L21016 capture; BNP(1-32) 0 pg/ml (blank)
[14] = molecular target: human proBNP(1-108), recombinant protein produced in E. coli (HyTest), non-glycosylated (human) (UniProt P16860); assay: sandwich ELISA, hinge 76 capture, HRP-mAb; proBNP(1-108) 312.5 pg/ml
[15] = molecular target: human proBNP(1-108), recombinant protein produced in E. coli (HyTest), non-glycosylated (human) (UniProt P16860); assay: sandwich ELISA, hinge 76 capture, HRP-mAb; proBNP(1-108) 78 pg/ml
[16] = molecular target: human proBNP(1-108), recombinant protein produced in E. coli (HyTest), non-glycosylated (human) (UniProt P16860); assay: sandwich ELISA, hinge 76 capture, HRP-mAb; proBNP(1-108) 1,250 pg/ml
[17] = molecular target: human BNP(1-32), synthetic peptide (Sigma-Aldrich #B-5900) (human); assay: sandwich ELISA, L21016 capture; BNP(1-32) 10,000 pg/ml
[18] = molecular target: human proBNP(1-108), recombinant protein produced in E. coli (HyTest), non-glycosylated (human) (UniProt P16860); assay: sandwich ELISA, hinge 76 capture, HRP-mAb; proBNP(1-108) 0 pg/ml (blank)
[19] = molecular target: human BNP(1-32), synthetic peptide (Sigma-Aldrich #B-5900) (human); assay: sandwich ELISA, L21016 capture; BNP(1-32) 1,250 pg/ml
[20] = molecular target: human BNP(1-32), synthetic peptide (Sigma-Aldrich #B-5900) (human); assay: sandwich ELISA, L21016 capture; BNP(1-32) 78 pg/ml
[21] = molecular target: human BNP(1-32), synthetic peptide (Sigma-Aldrich #B-5900) (human); assay: sandwich ELISA, L21016 capture; BNP(1-32) 39 pg/ml
[22] = molecular target: human proBNP(1-108), recombinant protein produced in E. coli (HyTest), non-glycosylated (human) (UniProt P16860); assay: sandwich ELISA, hinge 76 capture, HRP-mAb; proBNP(1-108) 156.25 pg/ml
[23] = molecular target: human BNP(1-32), synthetic peptide (Sigma-Aldrich #B-5900) (human); assay: sandwich ELISA, L21016 capture, BNP(1-32) 5 ng/ml; 50B7 0.5 µg/ml alone, no 20G7
[24] = molecular target: glycosylated human proBNP(1-108), recombinant protein from HEK293 cells (HyTest) (human) (UniProt P16860); assay: SPR ProteOn XPR36, mAb captured by anti-Fc, soluble antigen 13-200 nM
Sequence of glycosylated human proBNP(1-108), recombinant protein from HEK293 cells (HyTest) (human) (P16860 27-134): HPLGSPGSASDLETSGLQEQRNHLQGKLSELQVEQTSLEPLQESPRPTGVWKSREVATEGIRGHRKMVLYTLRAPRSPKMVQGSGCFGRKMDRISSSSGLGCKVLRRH

[25] = molecular target: human proBNP(1-108), recombinant protein produced in E. coli (HyTest), non-glycosylated (human) (UniProt P16860); assay: as above
[26] = molecular target: 24C5 monoclonal antibody (HyTest); assay: competition ELISA: BNP(1-32) immobilised at 0.5 µg/ml, 24C5 at 0.5 µg/ml mixed with the soluble peptide, anti-mouse IgG-peroxidase; % inhibition of the binding of 24C5 to BNP(1-32)

Sequence of human BNP(1-32), synthetic peptide (Sigma-Aldrich #B-5900) (human) (peptide, as listed by the source): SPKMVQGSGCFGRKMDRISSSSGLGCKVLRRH
Sequence of human proBNP(1-108), recombinant protein produced in E. coli (HyTest), non-glycosylated (human) (P16860 27-134): as the sequence (P16860 27-134) above

Row | Molecule | OD [1] | OD 490 nm [2] | OD 490 nm [3] | OD [4] | OD 490 nm [5] | OD 490 nm [6] | OD 490 nm [7] | OD 490 nm [8] | OD [9] | OD [10] | OD [11] | OD [12] | OD 490 nm [13] | OD [14] | OD [15] | OD [16] | OD 490 nm [17] | OD [18] | OD 490 nm [19] | OD 490 nm [20] | also measured
1 | 24C5 monoclonal antibody (HyTest) | 0.056 OD | 0.071 OD | 0.068 OD | 0.07 OD | 0.063 OD | 0.067 OD | 0.059 OD | 0.068 OD | 0.117 OD | 0.069 OD | 0.22 OD | 0.052 OD | 0.071 OD | 0.035 OD | 0.056 OD | 0.068 OD | 0.077 OD | 0.044 OD | 0.056 OD | 0.052 OD | OD 490 nm [21]: 0.055 OD; OD [22]: 0.055 OD
2 | 26E2 monoclonal antibody (HyTest) | 0.028 OD | 0.032 OD | 0.041 OD | 0.024 OD | 0.027 OD | 0.035 OD | 0.029 OD | 0.034 OD | 0.041 OD | 0.031 OD | 0.158 OD | 0.028 OD | 0.022 OD | 0.028 OD | 0.033 OD | 0.024 OD | 0.048 OD | 0.024 OD | 0.031 OD | 0.055 OD | OD 490 nm [21]: 0.032 OD; OD [22]: 0.027 OD
3 | 50B7 monoclonal antibody (HyTest) | – | – | – | – | – | – | – | – | – | – | – | – | – | – | – | – | – | – | – | – | OD 490 nm [23]: 1.3 OD
4 | hinge 76 monoclonal antibody (Bio-Rad) | – | – | – | – | – | – | – | – | – | – | – | – | – | – | – | – | – | – | – | – | Kd [24]: 23.5 nM; koff [24]: 0.00272 s⁻¹; kon [24]: 117000 M⁻¹ s⁻¹; Kd [25]: 0.173 nM; koff [25]: 0.000194 s⁻¹; kon [25]: 1.12e+06 M⁻¹ s⁻¹
5 | AGRKMDR [mutated epitope peptide A11GRKMDR17 (SEQ ID NO: 62)] | – | – | – | – | – | – | – | – | – | – | – | – | – | – | – | – | – | – | – | – | IC50 (read off the curve) [26]: 2 µg/mL
